Assay results as given in the supplement of paper PMC9112550, “Optimization of the antimicrobial peptide Bac7 by deep mutational scanning” (BMC Biology, 2022).

test system: Escherichia coli TOP10; experiment: shrunken log2 fold change of peptide-encoding DNA abundance (4.5 h post-induction vs induction); higher = less antimicrobial activity (less host growth inhibition); conditions: time post-induction: 4.5 h; library: site-saturation at positions 5, 18, 19, 20
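Further: peptides expressed intracellularly from a pBAD plasmid library in pooled LB shake-flask culture, induced with 0.3% L-arabinose, DNA abundance read by NGS, three biological replicates, DESeq2 with apeglm shrinkage.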

Compared with RRIRHRPPRLPRPRPRPKPTPRP, RRIRYRPPRLPRPRPRPVQIPRP is lower in “shrunken log2 fold change” value: 0.0736 for the first, -0.146 for the second.

Compared with RRIRLRPPRLPRPRPRPCHVPRP, RRIRNRPPRLPRPRPRPDTGPRP is higher in “shrunken log2 fold change” value: -0.412 for the first, -0.0135 for the second.

RRIRMRPPRLPRPRPRPVYCPRP and RRIRRRPPRLPRPRPRPFWTPRP are within 0.2 log units of each other in “shrunken log2 fold change” value: 0.00982 for the first, 0.00443 for the second.

Compared with RRIRFRPPRLPRPRPRPAYTPRP, RRIRWRPPRLPRPRPRPINSPRP is higher in “shrunken log2 fold change” value: -0.876 for the first, -0.498 for the second.

First: RRIRQRPPRLPRPRPRPLIDPRP
Second: RRIRLRPPRLPRPRPRPGELPRP
The “shrunken log2 fold change” value of the first is lower: -0.206 for the first, 0.0243 for the second.

Going from RRIRRRPPRLPRPRPRPFCFPRP to RRIRIRPPRLPRPRPRPDHTPRP, the “shrunken log2 fold change” value falls from 0.218 to -0.25.

Compared with RRIRMRPPRLPRPRPRPFEFPRP, RRIRDRPPRLPRPRPRPPAPPRP is higher in “shrunken log2 fold change” value: -0.044 for the first, 1.05 for the second.

Compared with RRIRVRPPRLPRPRPRPHSWPRP, RRIRMRPPRLPRPRPRPIENPRP is lower in “shrunken log2 fold change” value: 0.0662 for the first, -0.142 for the second.

RRIRERPPRLPRPRPRPHWVPRP and RRIRKRPPRLPRPRPRPHCMPRP are within 0.2 log units of each other in “shrunken log2 fold change” value: 0.172 for the first, 0.159 for the second.

First: RRIRHRPPRLPRPRPRPCLWPRP
Second: RRIRYRPPRLPRPRPRPVCSPRP
The “shrunken log2 fold change” value of the first is higher: -0.0157 for the first, -0.484 for the second.

Compared with RRIRQRPPRLPRPRPRPSHPPRP, RRIRIRPPRLPRPRPRPGEMPRP is higher in “shrunken log2 fold change” value: -0.272 for the first, -0.00568 for the second.

Compared with RRIRNRPPRLPRPRPRPCYYPRP, RRIRKRPPRLPRPRPRPGAAPRP is higher in “shrunken log2 fold change” value: -0.387 for the first, 1.54 for the second.

RRIRNRPPRLPRPRPRPDQQPRP and RRIRKRPPRLPRPRPRPCPMPRP are within 0.2 log units of each other in “shrunken log2 fold change” value: -0.0806 for the first, -0.15 for the second.

RRIRHRPPRLPRPRPRPLLQPRP and RRIRPRPPRLPRPRPRPVQSPRP are within 0.2 log units of each other in “shrunken log2 fold change” value: 0.112 for the first, 0.131 for the second.

Compared with RRIRCRPPRLPRPRPRPTEGPRP, RRIRWRPPRLPRPRPRPLGWPRP is higher in “shrunken log2 fold change” value: 0.284 for the first, 2.31 for the second.

Going from RRIRKRPPRLPRPRPRPYMAPRP to RRIRCRPPRLPRPRPRPSIQPRP, the “shrunken log2 fold change” value falls from -0.0833 to -0.655.

RRIRTRPPRLPRPRPRPRNTPRP and RRIRIRPPRLPRPRPRPADMPRP are within 0.2 log units of each other in “shrunken log2 fold change” value: -0.209 for the first, -0.0222 for the second.

RRIRVRPPRLPRPRPRPHGRPRP and RRIRGRPPRLPRPRPRPKIPPRP are within 0.2 log units of each other in “shrunken log2 fold change” value: -0.0651 for the first, 0.0163 for the second.

RRIRIRPPRLPRPRPRPQMGPRP and RRIRPRPPRLPRPRPRPAEVPRP are within 0.2 log units of each other in “shrunken log2 fold change” value: -0.0795 for the first, -0.0315 for the second.

Compared with RRIRCRPPRLPRPRPRPRQAPRP, RRIRARPPRLPRPRPRPRIAPRP is higher in “shrunken log2 fold change” value: 0.00566 for the first, 0.631 for the second.

Compared with RRIRVRPPRLPRPRPRPDMFPRP, RRIRHRPPRLPRPRPRPMPEPRP is higher in “shrunken log2 fold change” value: 0.0441 for the first, 0.283 for the second.

First: RRIRERPPRLPRPRPRPTVCPRP
Second: RRIRIRPPRLPRPRPRPRDIPRP
The “shrunken log2 fold change” value of the first is higher: 0.141 for the first, -0.203 for the second.

Compared with RRIRYRPPRLPRPRPRPSHWPRP, RRIRERPPRLPRPRPRPDGSPRP is higher in “shrunken log2 fold change” value: -0.225 for the first, 0.0355 for the second.

RRIRDRPPRLPRPRPRPHSRPRP and RRIRFRPPRLPRPRPRPNMMPRP are within 0.2 log units of each other in “shrunken log2 fold change” value: -0.328 for the first, -0.444 for the second.

RRIRHRPPRLPRPRPRPETYPRP and RRIRMRPPRLPRPRPRPCLSPRP are within 0.2 log units of each other in “shrunken log2 fold change” value: -0.00431 for the first, -0.0592 for the second.

RRIRDRPPRLPRPRPRPWDGPRP and RRIRVRPPRLPRPRPRPITQPRP are within 0.2 log units of each other in “shrunken log2 fold change” value: -0.0761 for the first, -0.0754 for the second.

First: RRIRQRPPRLPRPRPRPGVHPRP
Second: RRIRGRPPRLPRPRPRPESTPRP
The “shrunken log2 fold change” value of the first is lower: 0.0118 for the first, 1.63 for the second.

RRIRVRPPRLPRPRPRPKLSPRP and RRIRGRPPRLPRPRPRPYWFPRP are within 0.2 log units of each other in “shrunken log2 fold change” value: -0.0136 for the first, 0.105 for the second.

First: RRIRLRPPRLPRPRPRPNDAPRP
Second: RRIRFRPPRLPRPRPRPKWMPRP
The “shrunken log2 fold change” value of the first is higher: 0.229 for the first, -0.235 for the second.

RRIRQRPPRLPRPRPRPIETPRP and RRIRSRPPRLPRPRPRPRSFPRP are within 0.2 log units of each other in “shrunken log2 fold change” value: 0.00824 for the first, 0.124 for the second.

First: RRIRIRPPRLPRPRPRPWNFPRP
Second: RRIRCRPPRLPRPRPRPKFKPRP
The “shrunken log2 fold change” value of the first is higher: -0.00674 for the first, -0.287 for the second.

Compared with RRIRGRPPRLPRPRPRPGIYPRP, RRIRYRPPRLPRPRPRPKVEPRP is lower in “shrunken log2 fold change” value: 0.641 for the first, -0.157 for the second.

Going from RRIRRRPPRLPRPRPRPTEEPRP to RRIRYRPPRLPRPRPRPPDHPRP, the “shrunken log2 fold change” value falls from 1.07 to 0.0391.

RRIRCRPPRLPRPRPRPAASPRP and RRIRPRPPRLPRPRPRPLTRPRP are within 0.2 log units of each other in “shrunken log2 fold change” value: 0.246 for the first, 0.103 for the second.

First: RRIRMRPPRLPRPRPRPCHFPRP
Second: RRIRDRPPRLPRPRPRPGGEPRP
The “shrunken log2 fold change” value of the first is lower: -0.0459 for the first, 1.41 for the second.

First: RRIRDRPPRLPRPRPRPFVMPRP
Second: RRIRGRPPRLPRPRPRPENQPRP
The “shrunken log2 fold change” value of the first is lower: 0.0243 for the first, 0.534 for the second.

Compared with RRIRVRPPRLPRPRPRPNWFPRP, RRIRIRPPRLPRPRPRPSTMPRP is lower in “shrunken log2 fold change” value: 0.0817 for the first, -1.18 for the second.

With RRIRKRPPRLPRPRPRPTRKPRP the “shrunken log2 fold change” value was 3.78.
